Data published in patent publication US5817785, “Methods of producing nucleic acid ligands” (NeXstar Pharmaceuticals, Inc.).

How the values were obtained:
[1] = biological target: T1, HIV-1 reverse transcriptase (HIV-RT) (HIV-1, UniProt P04585;P04585 P04585:588-1147,P04585:588-1027); assay: filter; binds with high affinity
Description: (§1) Affinity assays with labeled RNA and HIV-RT. Model RNAs for refinement of the 5' and 3' boundaries and for determination of the effect of substitutions were labeled during transcription with T7 RNA polymerase as described in Tuerk et al. (1990) except that a-^32P-ATP was used, in reactions of 0.5 mM C,G, and UTP with 0.05 mM ATP. Synthetic oligonucleotides and phosphatased transcripts (as in Tuerk et al., 1990) were kinased as described in Gauss et al. (1987). All RNA-protein binding reactions were done in a "binding buffer" of 200 mM KOAc, 50 mM Tris-HCl pH 7.7, 10 mM dithiothreitol with exceptions noted for chemical protection experiments below. RNA and protein dilutions were mixed and stored on ice for 30 minutes then transferred to 37° C. for 5 minutes. In binding assays the reaction volume was 60 μl of which 50 μl was assayed. Each reaction was suctioned through a pre-wet (with binding buffer) nitrocellulose filter and rinsed with 3 mls of binding buffer after which it was dried and counted for assays or subjected to elution and assayed for chemical modification. In comparisons of binding affinity, results were plotted and the protein concentration at which half-maximal binding occurred (the approximate Kd in conditions of protein excess) was determined graphically.

[2] = biological target: T1, HIV-1 reverse transcriptase (HIV-RT); assay: filter
Description: as §1

[3] = biological target: T1, HIV-1 reverse transcriptase (HIV-RT); assay: filter; affinity unchanged versus transcripts with two extra 5' Gs
Description: as §1

[4] = biological target: T1, HIV-1 reverse transcriptase (HIV-RT); assay: filter; no 3' helix
Description: as §1

[5] = biological target: T1, HIV-1 reverse transcriptase (HIV-RT); assay: filter; specific binding abolished
Description: as §1

[6] = biological target: T1, HIV-1 reverse transcriptase (HIV-RT); assay: filter; little difference in affinity
Description: as §1

[7] = biological target: T1, HIV-1 reverse transcriptase (HIV-RT); assay: filter; no effect on binding
Description: as §1

[8] = biological target: T1, HIV-1 reverse transcriptase (HIV-RT); assay: filter; section II states 5-fold decrease on removal of both Us
Description: as §1

[9] = biological target: T1, HIV-1 reverse transcriptase (HIV-RT); assay: filter; no difference in affinity
Description: as §1

[10] = biological target: T1, HIV-1 reverse transcriptase (HIV-RT); assay: filter; binding reduced to that of non-specific sequences
Description: as §1

Q: Does UCCGAAGUGCAACGGGAAAAUGCACU (ssRNA, 2'-OMe at the 12 riboses of Stem 2 (A6-A11, U21-U26)) [ligand B with 2'-methoxy Stem 2 (FIG. 7 C)] bind [1]?
A: binds

Q: Does GGUGCGAAGUGCAACGCGAAAAUGCACU (ssRNA) [ligand B C2-G15 to G-C] bind [2]?
A: no binding

Q: Does UCCGAAGUGCAACGGGAAAAUGCACU (ssRNA) [synthetic ligand B with 5'-terminal U1] bind [3]?
A: binds

Q: GGUCCGAAGUGCAACGGGAAAA (ssRNA) [ligand B 3' truncation U21-U26 (no Stem 2)] was tested. Which binding signal [4] did it give?
A: ~70 fold lower affinity

Q: GGUCCAAAGUGCAACGGGAAAAUGCACU (ssRNA) [ligand B G4-C13 to A-C] was tested. Which binding signal [5] did it give?
A: ≥ 100 fold lower affinity

Q: Does GGACCGAAGUGCAACGGGAAAAUGCACU (ssRNA) [ligand B U1A] bind [6]?
A: binds

Q: With GGUCGGAAGUGCAACCGGAAAAUGCACU (ssRNA) [ligand B C3-G14 to G-C] as the binder, how does the binding signal [2] read?
A: ~10 fold lower affinity

Q: GGUCCGAAGUGCAACGGGAAAAU (ssRNA) [ligand B 3' truncation G22-U26] was tested. Which binding signal [2] did it give?
A: ~12 fold lower affinity

Q: Which binding signal [2] does the source give for GGUCCGAAGUGCAACGGGAAAAUG (ssRNA) [ligand B 3' truncation C23-U26] here?
A: 7 fold lower affinity

Q: How did the binding signal [2] turn out when GGCCCGAAGUGCAACGGGAAAAUGCACU (ssRNA) [ligand B U1C] was run?
A: ~20 fold lower affinity

Q: GGUCCCAAGUGCAAGGGGAAAAUGCACU (ssRNA) [ligand B G4-C13 to C-G] was tested. Which binding signal [7] did it give?
A: 1 fold vs ligand B

Q: With GGCCGAAGUGCAACGGGAAAAUGCACU (ssRNA, [none]) [HIV-RT ligand C of FIG. 2 (no 5' U)] as the binder, how does the binding signal [8] read?
A: ~20 fold lower affinity

Q: Does GGUCCGAAGUGCAACGGAAAAAUGCACU (ssRNA) [ligand B G16A] bind [5]?
A: no binding

Q: For GGUCCAAAGUGCAAUGGGAAAAUGCACU (ssRNA) [ligand B G4-C13 to A-U], which binding signal [2] is on record?
A: ~20 fold lower affinity

Q: For GGUCCGAAGUGCAACGGGAAAAUGC (ssRNA) [ligand B 3' truncation A24-U26], which binding signal [9] is on record?
A: 1 fold vs ligand B

Q: Does GGCGAAGUGCAACGGGAAAAUGCACU (ssRNA) [HIV-RT ligand D of FIG. 2 (5' U and next C removed)] bind [10]?
A: no binding
